Assays:
[1] = molecular target: T1, His-DDB1 (human DNA damage-binding protein 1 with N-terminal His6-tag) (human, UniProt Q16531 1-1140); assay: SPR (Biacore), His-DDB1 amine-coupled on CM5 chip, steady state affinity fit; graded cell, table key: A: Kd < 20 uM
T1 construct: Vector-derived residues between the His6-tag and DDB1 (pFastBacHTB) are not described; also called His-DDB1 proteins

[2] = molecular target: T1, His-DDB1 (human DNA damage-binding …); assay: SPR (Biacore), His-DDB1 amine-coupled on CM5 chip, steady state affinity fit; graded cell, table key: B: Kd 20-100 uM (lower end of the range)

T1 sequence (Q16531 other isoform, or with tags, fused parts or gaps limits assumed): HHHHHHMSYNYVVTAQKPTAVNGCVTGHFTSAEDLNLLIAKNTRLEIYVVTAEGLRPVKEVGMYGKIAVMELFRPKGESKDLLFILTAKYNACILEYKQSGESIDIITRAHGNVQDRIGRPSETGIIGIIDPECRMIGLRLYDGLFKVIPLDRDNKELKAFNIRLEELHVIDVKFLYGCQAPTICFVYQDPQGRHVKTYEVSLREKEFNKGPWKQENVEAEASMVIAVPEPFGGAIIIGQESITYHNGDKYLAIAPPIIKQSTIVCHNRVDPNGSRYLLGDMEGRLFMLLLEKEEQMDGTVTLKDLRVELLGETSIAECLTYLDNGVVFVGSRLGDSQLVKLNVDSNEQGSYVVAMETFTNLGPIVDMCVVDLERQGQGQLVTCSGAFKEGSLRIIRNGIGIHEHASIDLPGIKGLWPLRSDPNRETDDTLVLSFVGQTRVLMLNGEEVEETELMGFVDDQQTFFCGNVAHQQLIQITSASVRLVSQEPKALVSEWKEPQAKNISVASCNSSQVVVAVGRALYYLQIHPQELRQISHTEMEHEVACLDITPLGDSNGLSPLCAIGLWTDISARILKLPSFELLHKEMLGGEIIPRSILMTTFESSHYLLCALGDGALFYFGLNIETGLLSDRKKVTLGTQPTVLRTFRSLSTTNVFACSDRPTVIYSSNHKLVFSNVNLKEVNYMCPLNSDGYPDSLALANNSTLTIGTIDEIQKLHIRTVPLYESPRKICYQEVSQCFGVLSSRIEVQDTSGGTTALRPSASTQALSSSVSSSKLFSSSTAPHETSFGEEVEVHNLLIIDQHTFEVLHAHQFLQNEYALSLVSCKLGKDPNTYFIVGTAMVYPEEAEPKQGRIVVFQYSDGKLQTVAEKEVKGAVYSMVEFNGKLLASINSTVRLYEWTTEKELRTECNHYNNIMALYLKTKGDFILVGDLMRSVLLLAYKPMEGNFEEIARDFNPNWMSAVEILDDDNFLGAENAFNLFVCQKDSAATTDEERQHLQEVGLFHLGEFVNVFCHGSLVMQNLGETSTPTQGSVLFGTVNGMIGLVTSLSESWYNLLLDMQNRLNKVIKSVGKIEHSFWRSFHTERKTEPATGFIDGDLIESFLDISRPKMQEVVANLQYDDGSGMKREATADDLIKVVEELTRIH

B1: Peptide 1 (SEQ ID NO: 1) (peptide)
peptide: ILPKVLHKRTLGLS
notes: No terminal modifications are stated for the tested peptide
[1]
  Kd: < 20 µM

B2: Peptide 5 (SEQ ID NO: 5) (peptide)
peptide: KVLHKRTLG
[1]
  Kd: < 20 µM

B3: Peptide 2 (SEQ ID NO: 2) (peptide)
peptide: ILPKVWHKRELGLS
[1]
  Kd: < 20 µM

B4: Peptide 7 (SEQ ID NO: 7) (peptide)
peptide: SRLNRRASF
[2]
  Kd: 20 to 100 µM

B5: Peptide 3 (SEQ ID NO: 3) (peptide)
peptide: ILPKVLHKRTLGL
[1]
  Kd: < 20 µM

B6: Peptide 4 (SEQ ID NO: 4) (peptide)
peptide: ILPKVLHKRTFGL
[1]
  Kd: < 20 µM

B7: Peptide 6 (SEQ ID NO: 6) (peptide)
peptide: NFTSRLNRRASFP
[1]
  Kd: < 20 µM

— patent US20230057177A1 (CULLGEN SHANGHAI, published 2023)
